The text below walks through data of publication PMC10178127, “Immunomodulatory Effects of the Pea Defensin Psd1 in the Caco-2/Immune Cells Co-Culture upon Candida albicans Infection” (International Journal of Molecular Sciences, 2023).

The series has as its system human peripheral blood mononuclear cells (PBMCs). The series is described as follows: Resazurin-based cell cytotoxicity assay. The settings on record: 24 h. The method, then: The cytotoxic properties of the pea defensin Psd1 were investigated by resazurin-based cell cytotoxicity assay as previously described. In brief, PBMCs were seeded in 96-well plates at 2 × 10^6 cells per well in RPMI-1640 supplemented with 10% FBS and kept in a CO2 incubator for 24 h. After this, serial two-fold dilutions of defensin in a complete culture medium were added to the wells at final concentrations from 0.2 to 50 μM and the plates were incubated for 24 h. Resazurin (Sigma) was added at a final concentration of 70 µM, and the plates were incubated overnight (16–18 h). Fluorescent resorufin was registered using a 535/595 filter at PlateReader AF2200 (Eppendorf). Untreated cells were used as negative controls. Non-ionogenic detergent Triton X-100 and membrane-active peptide melittin from honeybee venom were used as positive controls. The cell viability was calculated according to the following equation: cell viability (%) = (Fsample/Fcontrol) × 100%. Cell lysis was monitored with an Olympus CKX41 microscope.

Regarding “Psd1: pea defensin from Pisum sativum (UNIPROT P81929), recombinant peptide overexpressed in Escherichia coli (KTCEHLADTYRGVCFTNASCDDHCKNKAHLISGTCHNWKCFCTQNC; UniProt P81929 1-46, looked up)”, for the setting “0.2 to 50 μM”, the “cytotoxic activity on PBMCs” value was “no cytotoxic activity”. This substance returned a Cell viability (PBMCs, 50 μM) of 100%.
